For one substance, % activity results are on record in patent US20160136234A1.

Targets include Abl (h) (human) (UniProt P00519); Aurora-B (h) (human) (UniProt Q96GD4); CK2 (h) (human) (UniProt P68400); CaMKIIδ (h) (human) (UniProt Q13557); DMPK (h) (human) (UniProt Q09013); EphA4 (h) (human) (UniProt P54764); EphA7 (h) (human) (UniProt Q15375); Fer (h) (human) (UniProt P16591); Fes (h) (human) (UniProt P07332); IRR (h) (human) (UniProt P14616); JNK2α2 (h) (human) (UniProt P45984); LIMK1 (h) (human) (UniProt P53667); PAK2 (h) (human) (UniProt Q13177); PTK5 (h) (human) (UniProt P42685); Pyk2 (h) (human) (UniProt Q14289); Ron (h) (human) (UniProt Q04912); Rsk3 (h) (human) (UniProt Q15349); cKit(D816V) (h) (human) (UniProt P10721); cSRC (h) (human) (UniProt P12931).

Common to all, as to experiment: cell-based or functional assay
For experiment [1], the target named is CDK6/cyclinD3 (h) (human) (UniProt Q00534).
A further experiment has as its target T1, EphA3 (h) (human) (UniProt P29320).
T1 sequence (looked up): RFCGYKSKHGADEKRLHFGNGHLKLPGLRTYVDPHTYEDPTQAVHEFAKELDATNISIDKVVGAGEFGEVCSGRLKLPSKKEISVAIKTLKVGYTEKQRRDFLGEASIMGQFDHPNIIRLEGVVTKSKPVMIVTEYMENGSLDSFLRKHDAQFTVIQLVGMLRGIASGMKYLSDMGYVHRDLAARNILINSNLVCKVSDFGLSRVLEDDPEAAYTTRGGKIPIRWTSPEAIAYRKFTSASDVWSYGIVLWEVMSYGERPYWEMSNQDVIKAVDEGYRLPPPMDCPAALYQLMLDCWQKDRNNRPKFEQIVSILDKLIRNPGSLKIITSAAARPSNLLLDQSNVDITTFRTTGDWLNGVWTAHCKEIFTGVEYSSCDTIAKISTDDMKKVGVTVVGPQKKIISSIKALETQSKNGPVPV

Another experiment deals with T2, NEK11 (h) (human) (UniProt Q8NG66).
T2 sequence (looked up): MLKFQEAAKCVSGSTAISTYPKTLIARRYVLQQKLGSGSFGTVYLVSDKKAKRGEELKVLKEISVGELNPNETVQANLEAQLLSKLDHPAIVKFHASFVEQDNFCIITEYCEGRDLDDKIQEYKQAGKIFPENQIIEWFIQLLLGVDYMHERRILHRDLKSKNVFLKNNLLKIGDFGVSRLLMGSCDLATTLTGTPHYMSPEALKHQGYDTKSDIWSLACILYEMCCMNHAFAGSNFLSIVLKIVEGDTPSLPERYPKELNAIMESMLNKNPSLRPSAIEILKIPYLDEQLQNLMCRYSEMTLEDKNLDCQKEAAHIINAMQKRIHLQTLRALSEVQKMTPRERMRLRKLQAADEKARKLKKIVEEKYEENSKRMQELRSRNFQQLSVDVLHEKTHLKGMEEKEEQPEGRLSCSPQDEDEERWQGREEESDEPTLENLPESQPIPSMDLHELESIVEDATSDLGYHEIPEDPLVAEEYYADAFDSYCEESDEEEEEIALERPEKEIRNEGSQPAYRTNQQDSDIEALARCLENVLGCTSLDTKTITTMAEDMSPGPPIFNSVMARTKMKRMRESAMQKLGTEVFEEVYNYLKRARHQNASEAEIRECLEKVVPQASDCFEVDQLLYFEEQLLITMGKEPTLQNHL

Another experiment has as its target T3, SGK3 (h) (human) (UniProt Q96BR1).
T3 sequence (looked up): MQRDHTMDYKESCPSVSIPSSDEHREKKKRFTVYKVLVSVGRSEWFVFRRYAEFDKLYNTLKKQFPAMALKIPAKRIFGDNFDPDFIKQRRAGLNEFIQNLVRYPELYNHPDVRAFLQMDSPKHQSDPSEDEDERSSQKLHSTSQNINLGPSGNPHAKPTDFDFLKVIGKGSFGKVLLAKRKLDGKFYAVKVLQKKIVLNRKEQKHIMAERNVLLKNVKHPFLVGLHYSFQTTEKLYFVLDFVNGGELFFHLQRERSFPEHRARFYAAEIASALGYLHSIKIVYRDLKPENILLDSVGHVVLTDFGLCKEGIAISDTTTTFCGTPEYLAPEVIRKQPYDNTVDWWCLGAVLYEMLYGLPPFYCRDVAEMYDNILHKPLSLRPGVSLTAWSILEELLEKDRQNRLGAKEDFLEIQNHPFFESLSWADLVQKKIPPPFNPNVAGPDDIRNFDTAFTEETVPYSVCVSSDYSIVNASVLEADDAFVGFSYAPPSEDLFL

Chain of IRR (h) (human) (P14616 944-1297 limits assumed): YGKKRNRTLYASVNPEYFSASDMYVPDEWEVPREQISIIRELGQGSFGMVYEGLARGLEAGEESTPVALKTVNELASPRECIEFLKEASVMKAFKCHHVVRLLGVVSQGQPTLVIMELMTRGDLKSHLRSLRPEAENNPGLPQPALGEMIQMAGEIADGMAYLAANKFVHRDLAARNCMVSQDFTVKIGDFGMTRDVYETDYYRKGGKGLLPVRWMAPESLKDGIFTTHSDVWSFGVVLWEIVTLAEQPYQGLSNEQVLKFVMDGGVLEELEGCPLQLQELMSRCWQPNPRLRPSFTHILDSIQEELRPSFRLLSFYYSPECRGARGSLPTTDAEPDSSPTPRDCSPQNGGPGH
Chain of Abl (h) (human) (P00519 27-1130 limits assumed): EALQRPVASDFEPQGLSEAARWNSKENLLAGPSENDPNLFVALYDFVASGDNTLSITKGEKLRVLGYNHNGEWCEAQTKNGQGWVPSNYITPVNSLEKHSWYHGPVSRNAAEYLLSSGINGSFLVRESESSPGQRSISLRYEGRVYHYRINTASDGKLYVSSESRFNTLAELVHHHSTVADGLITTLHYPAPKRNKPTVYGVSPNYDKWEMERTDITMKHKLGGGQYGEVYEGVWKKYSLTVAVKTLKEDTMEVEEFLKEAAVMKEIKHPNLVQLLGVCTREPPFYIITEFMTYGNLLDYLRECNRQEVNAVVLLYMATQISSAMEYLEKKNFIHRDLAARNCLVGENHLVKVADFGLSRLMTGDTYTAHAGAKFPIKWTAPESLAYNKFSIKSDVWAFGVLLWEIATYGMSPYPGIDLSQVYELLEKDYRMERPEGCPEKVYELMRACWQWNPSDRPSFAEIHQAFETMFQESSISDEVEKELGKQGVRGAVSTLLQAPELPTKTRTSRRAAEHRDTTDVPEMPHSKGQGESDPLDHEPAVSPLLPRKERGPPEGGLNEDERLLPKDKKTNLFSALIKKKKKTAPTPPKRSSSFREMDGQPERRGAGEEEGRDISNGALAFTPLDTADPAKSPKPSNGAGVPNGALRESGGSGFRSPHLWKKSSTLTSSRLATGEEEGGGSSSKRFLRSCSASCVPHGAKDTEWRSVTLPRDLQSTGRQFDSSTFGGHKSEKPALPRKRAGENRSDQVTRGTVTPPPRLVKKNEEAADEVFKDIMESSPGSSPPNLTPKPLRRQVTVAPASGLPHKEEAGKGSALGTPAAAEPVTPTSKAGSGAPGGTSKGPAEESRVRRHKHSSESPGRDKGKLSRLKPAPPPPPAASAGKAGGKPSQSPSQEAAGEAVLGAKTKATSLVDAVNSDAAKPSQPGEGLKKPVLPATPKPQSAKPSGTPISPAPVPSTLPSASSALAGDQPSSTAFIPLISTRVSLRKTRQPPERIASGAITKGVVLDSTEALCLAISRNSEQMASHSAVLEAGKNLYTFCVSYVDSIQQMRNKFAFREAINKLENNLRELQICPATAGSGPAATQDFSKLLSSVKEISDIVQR
Chain of CDK6/cyclinD3 (h) (human) (Q00534 whole entry, chain 1 of 2): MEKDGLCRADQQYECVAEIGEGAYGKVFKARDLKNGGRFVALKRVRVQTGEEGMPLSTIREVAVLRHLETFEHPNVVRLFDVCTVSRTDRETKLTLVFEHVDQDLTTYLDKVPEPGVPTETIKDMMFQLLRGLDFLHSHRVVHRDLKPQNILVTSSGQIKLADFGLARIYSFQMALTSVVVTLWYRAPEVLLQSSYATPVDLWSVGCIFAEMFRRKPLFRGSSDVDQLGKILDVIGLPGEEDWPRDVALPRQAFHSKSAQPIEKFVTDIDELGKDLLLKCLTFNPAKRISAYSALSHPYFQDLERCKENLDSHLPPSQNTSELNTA
Chain of CDK6/cyclinD3 (h) (human) (P30281 whole entry, chain 2 of 2, further chain): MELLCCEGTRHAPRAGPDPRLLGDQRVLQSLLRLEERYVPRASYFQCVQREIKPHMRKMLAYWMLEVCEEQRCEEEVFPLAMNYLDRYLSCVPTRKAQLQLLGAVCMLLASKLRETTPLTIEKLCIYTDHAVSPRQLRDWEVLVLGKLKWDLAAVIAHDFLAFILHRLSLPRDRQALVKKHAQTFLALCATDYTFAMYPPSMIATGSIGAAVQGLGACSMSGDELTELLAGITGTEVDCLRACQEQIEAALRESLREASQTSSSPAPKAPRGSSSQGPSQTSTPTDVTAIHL
Chain of Aurora-B (h) (human) (Q96GD4 whole entry): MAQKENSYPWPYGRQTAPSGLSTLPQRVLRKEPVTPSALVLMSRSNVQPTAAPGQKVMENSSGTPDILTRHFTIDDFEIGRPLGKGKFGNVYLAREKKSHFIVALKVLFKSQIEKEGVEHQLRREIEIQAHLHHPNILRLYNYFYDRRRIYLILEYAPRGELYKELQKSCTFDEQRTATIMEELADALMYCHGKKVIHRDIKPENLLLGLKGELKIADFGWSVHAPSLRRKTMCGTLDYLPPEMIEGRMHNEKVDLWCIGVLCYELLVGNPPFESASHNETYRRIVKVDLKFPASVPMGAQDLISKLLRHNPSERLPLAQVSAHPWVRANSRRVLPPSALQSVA
Chain of EphA4 (h) (human) (P54764 570-986 limits assumed): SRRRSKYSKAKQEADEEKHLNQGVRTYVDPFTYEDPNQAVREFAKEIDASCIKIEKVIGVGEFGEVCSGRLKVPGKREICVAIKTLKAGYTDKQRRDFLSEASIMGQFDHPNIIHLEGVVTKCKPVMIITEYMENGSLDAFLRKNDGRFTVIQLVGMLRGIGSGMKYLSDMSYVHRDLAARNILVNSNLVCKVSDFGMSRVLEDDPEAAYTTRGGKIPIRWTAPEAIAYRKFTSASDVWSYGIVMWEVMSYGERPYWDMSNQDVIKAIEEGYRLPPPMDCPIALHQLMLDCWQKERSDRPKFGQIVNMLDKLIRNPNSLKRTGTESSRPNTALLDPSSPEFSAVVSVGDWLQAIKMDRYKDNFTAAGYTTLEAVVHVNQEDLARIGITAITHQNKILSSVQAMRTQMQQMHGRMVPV
Chain of PAK2 (h) (human) (Q13177 whole entry): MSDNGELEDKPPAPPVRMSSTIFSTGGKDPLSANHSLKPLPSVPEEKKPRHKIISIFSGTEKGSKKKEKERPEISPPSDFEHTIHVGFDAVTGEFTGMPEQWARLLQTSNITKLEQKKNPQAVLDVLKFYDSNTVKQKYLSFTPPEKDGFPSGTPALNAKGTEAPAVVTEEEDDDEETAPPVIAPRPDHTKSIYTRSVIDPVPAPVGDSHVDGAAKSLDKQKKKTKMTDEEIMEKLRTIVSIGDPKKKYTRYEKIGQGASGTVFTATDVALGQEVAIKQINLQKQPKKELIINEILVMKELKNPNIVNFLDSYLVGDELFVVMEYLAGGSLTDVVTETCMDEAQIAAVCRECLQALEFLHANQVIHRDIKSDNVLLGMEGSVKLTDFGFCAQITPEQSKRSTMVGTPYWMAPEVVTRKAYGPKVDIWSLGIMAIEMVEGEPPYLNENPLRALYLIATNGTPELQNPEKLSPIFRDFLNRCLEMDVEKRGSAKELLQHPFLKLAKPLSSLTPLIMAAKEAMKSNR
Chain of Rsk3 (h) (human) (Q15349 whole entry): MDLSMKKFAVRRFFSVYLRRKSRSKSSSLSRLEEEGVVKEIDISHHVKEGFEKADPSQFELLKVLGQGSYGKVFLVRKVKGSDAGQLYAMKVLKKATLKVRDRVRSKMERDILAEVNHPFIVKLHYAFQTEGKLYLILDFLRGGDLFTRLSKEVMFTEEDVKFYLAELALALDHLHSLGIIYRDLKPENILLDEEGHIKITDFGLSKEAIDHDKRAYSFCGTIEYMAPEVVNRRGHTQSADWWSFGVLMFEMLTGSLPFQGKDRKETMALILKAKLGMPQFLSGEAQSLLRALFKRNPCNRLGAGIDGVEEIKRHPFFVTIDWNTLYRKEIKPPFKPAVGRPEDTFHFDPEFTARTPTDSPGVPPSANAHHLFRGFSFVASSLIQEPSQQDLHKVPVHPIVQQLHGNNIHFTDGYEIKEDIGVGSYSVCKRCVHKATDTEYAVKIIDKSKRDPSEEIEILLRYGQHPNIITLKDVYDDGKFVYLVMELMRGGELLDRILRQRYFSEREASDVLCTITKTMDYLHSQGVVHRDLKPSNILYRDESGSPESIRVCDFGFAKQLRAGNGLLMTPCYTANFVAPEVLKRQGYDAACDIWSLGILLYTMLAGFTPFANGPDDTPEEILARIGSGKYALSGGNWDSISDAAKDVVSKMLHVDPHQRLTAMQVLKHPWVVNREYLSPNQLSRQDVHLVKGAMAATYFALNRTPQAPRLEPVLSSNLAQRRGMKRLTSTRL
Chain of Ron (h) (human) (Q04912 983-1400 limits assumed): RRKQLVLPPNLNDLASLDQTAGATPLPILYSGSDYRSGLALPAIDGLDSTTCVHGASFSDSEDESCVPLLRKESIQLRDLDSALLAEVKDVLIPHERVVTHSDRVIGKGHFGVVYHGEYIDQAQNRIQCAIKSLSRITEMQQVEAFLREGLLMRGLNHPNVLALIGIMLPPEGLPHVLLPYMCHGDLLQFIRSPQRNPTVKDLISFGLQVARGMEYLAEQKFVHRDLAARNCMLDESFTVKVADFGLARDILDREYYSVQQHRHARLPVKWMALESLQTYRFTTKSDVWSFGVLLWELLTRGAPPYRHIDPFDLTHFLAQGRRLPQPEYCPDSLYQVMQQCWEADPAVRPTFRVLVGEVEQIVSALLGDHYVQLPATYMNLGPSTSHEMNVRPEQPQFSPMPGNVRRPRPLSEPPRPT
Chain of cKit(D816V) (h) (human) (P10721 544-976 D816V): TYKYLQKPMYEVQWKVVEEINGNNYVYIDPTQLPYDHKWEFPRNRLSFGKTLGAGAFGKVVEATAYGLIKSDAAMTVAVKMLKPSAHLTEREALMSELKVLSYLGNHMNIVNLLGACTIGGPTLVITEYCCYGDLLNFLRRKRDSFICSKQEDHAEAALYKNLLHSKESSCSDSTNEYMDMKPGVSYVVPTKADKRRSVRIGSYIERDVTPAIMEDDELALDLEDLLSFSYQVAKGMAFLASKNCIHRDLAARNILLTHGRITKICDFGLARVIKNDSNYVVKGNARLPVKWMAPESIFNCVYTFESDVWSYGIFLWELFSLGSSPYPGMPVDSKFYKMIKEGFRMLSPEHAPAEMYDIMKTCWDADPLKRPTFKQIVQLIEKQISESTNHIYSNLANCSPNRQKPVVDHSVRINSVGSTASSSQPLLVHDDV

Consider MMI-0300 (peptide), for which the % activity at 100 µM is 69% with Abl (h) (human); 128% with Aurora-B (h) (human); 86% in experiment [1]; 90% with CK2 (h) (human); 1% in the experiment with CaMKIIδ (h) (human); 59% with DMPK (h) (human). Further, the % activity at 100 µM with EphA3 (h) (human) came out at 6%; with EphA4 (h) (human) it was 88%; in the experiment with EphA7 (h) (human), 159%; with Fer (h) (human) it was 130%; with Fes (h) (human) it was 20%; with IRR (h) (human), 8%. Besides, the % activity at 100 µM with JNK2α2 (h) (human) came out at 98%; with LIMK1 (h) (human), 88%; with NEK11 (h) (human), 53%; with PAK2 (h) (human) it was 65%; in the experiment with PTK5 (h) (human), 132%; in the experiment with Pyk2 (h) (human), 47%. The % activity at 100 µM amounted to 93% with Ron (h) (human); 76% with Rsk3 (h) (human); 10% with SGK3 (h) (human); 60% in the experiment with cKit(D816V) (h) (human); 26% in the experiment with cSRC (h) (human).
